In patent US20230263900A1, “DENDRIMER-DRUG CONJUGATE” (priority 2020, published 2023):

Test: Pharmacokinetic studies of RHa-5 and RHa-15, single IV or SC administration, compared with RDV
Format: in vivo, animals (mammals)
Conditions: for F AUC(0-inf), plasma GS-441524 / F AUC(0-inf), plasma Remdesivir / F AUC(0-last), plasma GS-441524 / F AUC(0-last), plasma Remdesivir: relative to RDV IV
Procedure: Studies were undertaken to investigate the pharmacokinetic (PK) profile of two Remdesivir dendrimer conjugates following single intravenous (IV) or subcutaneous (SC) administration, and to compare them with that of Remdesivir (RDV).
The study consisted of two phases (PK Phase 1 and PK Phase 2) in a total of 6 animals (age 36-48 months) each part separated by a washout period: • PK Phase 1: Four animals (mammals) were studied. One male and one female were administered RHa-5 (BHALys [Lys]2[Lys]2[Lys]8[Lys]16[Lys]32[(α-NH-6N-TDA-Remdesivir)32(ε-NH-COPEG2000)32] 20% Remdesivir loading w/w) (test item) intravenously; and one male and one female were administered RHa-5 subcutaneously. Blood samples were taken over a period of 7 days. A minimum washout period of 14 days took place between the last blood sampling point of the PK Phase 1 and the start of PK Phase 2. • PK Phase 2: Six animals (mammals) were studied. One male and one female were administered RHa-15 (BHALys[Lys]2[Lys]4[Lys]8[Lys]16[Lys]32[(α-NH-3′ O-TDA-Remdesivir)32(ε-NH-COPEG2000)32] 18.63% Remdesivir loading w/w) (test item) intravenously; one male and one female were administered RHa-15 subcutaneously; and one male and one female were administered RDV (reference item). Blood samples were taken over a period of 7 days.
Formulation procedure: Test items RHa-5 and RHa-15 were reconstituted in Required volume of Water for injection (WFI), until a complete solution was obtained. The required volume of WFI was slowly added to RDV formulation (a lyophilate of 3.2% w/w RDV, 96.8% and sodium sulfobutylether-β-cyclodextrin adjusted to pH 3.5 with HCl) and shaken vigorously for 30 seconds. The solution was left for 20 minutes to ensure complete dissolution.
Administration: The clinical Remdesivir loading dose in humans is 200 mg. […] Allometric conversion of the dose from humans to small mammals results in an equivalent test dose of 6.17 mg/kg Remdesivir. Test item was administered as follows:
PK Phase 1: Two animal groups (A and B) of one male and one female each were administered test item RHa-5 at a Remdesivir equivalent dose of 6.17 mg/kg. Group A were administered the test item as a slow (30 seconds) intravenous bolus; and Group B were administered the test item over 30 seconds using the subcutaneous (SC) route into the back of the animal.
PK Phase 2: Three animal groups (C, D and E) of one male and one female each were included in this study phase. Groups C and D were administered test item RHa-15 at a Remdesivir equivalent dose of 6.17 mg/kg using the IV and SC routes, respectively. Group E were administered 6.17 mg/kg of RDV intravenously. IV administrations were done as a slow (30 seconds) bolus. SC administrations were done over 30 seconds.
Sampling schedule: Blood samples for PK analysis were collected as follows: • Day 1: pre-dose and at 15 min, 30 min, 1 h, 2 h, 4 h, 6 h, and 12 h after administration. • Days 2 to 8: 24, 48, 72, and 168 h after administration.
A blood volume of 2 mL was collected at each time point from the jugular vein with a 20-21G needle into a lithium heparin tube, and transferred into a tube containing 200 μL 0.15 M citric acid. Immediately following blood collection, the blood samples were mixed gently and kept on crushed ice until centrifugation at 1500 G for 10 min at 4° C. within 30 minutes of collection. Each plasma sample was stored frozen (˜80±10° C.).
The quantification range was 0.6 to 14400 ng/mL for Remdesivir and 0.6 to 14400 ng/mL for G441524.
Non-compartmental pharmacokinetic analysis was adopted to obtain the pharmacokinetic parameters from the blood concentration profiles.
The maximum concentration, Cmax, and time of maximum concentration, Tmax, were determined as the maximum measured concentration and its associated time. The area under the plasma concentration curve from 0 hours to the time of the last measurable concentration, AUC0-last, was calculated using linear trapezoidal estimation. […]

[1] = IV, 6.17 mg/kg Remdesivir equivalent, female (4F)
[2] = IV, 6.17 mg/kg Remdesivir equivalent, female (4F; RDV 6F)
[3] = IV, 6.17 mg/kg Remdesivir equivalent, male (1M)
[4] = IV, 6.17 mg/kg Remdesivir equivalent, male (1M; RDV 3M)
[5] = IV, 6.17 mg/kg Remdesivir equivalent, mean of male and female
[6] = IV, 6.17 mg/kg Remdesivir equivalent, mean
[7] = SC, 6.17 mg/kg Remdesivir equivalent, female (5F)
[8] = SC, 6.17 mg/kg Remdesivir equivalent, male (2M)
[9] = SC, 6.17 mg/kg Remdesivir equivalent, mean
[10] = both sexes, in vivo, iv, 6.17 mg/kg
[11] = female, in vivo, iv, 6.17 mg/kg

In the case of “BHALys[Lys]2[Lys]4[Lys]8[Lys]16[Lys]32[(α-NH-3′O-TDA-Remdesivir)32(ε-NH-COPEG2000)32] [RHa-15]”, the “C0, plasma GS-441524” value [1] is reported as 1 ng/mL, the “C0, plasma Remdesivir” value [1] is reported as 691 ng/mL and the “F AUC(0-inf), plasma GS-441524” value [1] is reported as 0.8 x-fold. The “F AUC(0-inf), plasma Remdesivir” value [1] was 14.8 x-fold, the “F AUC(0-last), plasma GS-441524” value [1] was 0.7 x-fold and the “F AUC(0-last), plasma Remdesivir” value [1] was 16.3 x-fold. The “Clast, plasma GS-441524” value [2] was 10.5 ng/mL, the “Clast, plasma Remdesivir” value [2] was 1.8 ng/mL and the “t1/2last, plasma GS-441524” value [2] was 19.0 h. For the same compound, the “t1/2last, plasma Remdesivir” value [2] was 10.1 h, the “tlast, plasma GS-441524” value [2] was 72 h and the “tlast, plasma Remdesivir” value [2] was 72 h. For the same compound, the “C0, plasma GS-441524” value [3] was 1 ng/mL, the “C0, plasma Remdesivir” value [3] was 664 ng/mL and the “F AUC(0-inf), plasma GS-441524” value [3] was 0.8 x-fold. For the same compound, the “F AUC(0-inf), plasma Remdesivir” value [3] was 12.1 x-fold, the “F AUC(0-last), plasma GS-441524” value [3] was 0.7 x-fold and the “F AUC(0-last), plasma Remdesivir” value [3] was 12.4 x-fold. For the same compound, the “Clast, plasma GS-441524” value [4] was 10.9 ng/mL, the “Clast, plasma Remdesivir” value [4] was 1.8 ng/mL and the “t1/2last, plasma GS-441524” value [4] was 21.5 h. The “t1/2last, plasma Remdesivir” value [4] was 10.0 h, the “tlast, plasma GS-441524” value [4] was 72 h and the “tlast, plasma Remdesivir” value [4] was 72 h. The “C0, plasma GS-441524” value [5] was 1 ng/mL, the “C0, plasma Remdesivir” value [5] was 677 ng/mL and the “Clast, plasma GS-441524” value [5] was 11 ng/mL. For the same compound, the “Clast, plasma Remdesivir” value [5] was 2 ng/mL, the “t1/2last, plasma GS-441524” value [5] was 20.3 h and the “t1/2last, plasma Remdesivir” value [5] was 10.0 h. The “tlast, plasma GS-441524” value [5] was 72 h, the “tlast, plasma Remdesivir” value [5] was 2 h and the “F AUC(0-inf), plasma GS-441524” value [6] was 0.8 x-fold. The “F AUC(0-inf), plasma Remdesivir” value [6] was 13.5 x-fold, the “F AUC(0-last), plasma GS-441524” value [6] was 1 x-fold and the “F AUC(0-last), plasma Remdesivir” value [6] was 14 x-fold. For the same compound, the “Clast, plasma GS-441524” value [7] was 1 ng/mL, the “Clast, plasma Remdesivir” value [7] was 2 ng/mL and the “t1/2last, plasma GS-441524” value [7] was 24.5 h. The “t1/2last, plasma Remdesivir” value [7] was 31.5 h, the “tlast, plasma GS-441524” value [7] was 168 h and the “tlast, plasma Remdesivir” value [7] was 168 h. For the same compound, the “F AUC(0-inf), plasma GS-441524” value [7] was 0.8 x-fold, the “F AUC(0-inf), plasma Remdesivir” value [7] was 14.8 x-fold and the “F AUC(0-last), plasma GS-441524” value [7] was 0.8 x-fold. For the same compound, the “F AUC(0-last), plasma Remdesivir” value [7] was 16.3 x-fold, the “Clast, plasma GS-441524” value [8] was 1 ng/mL and the “Clast, plasma Remdesivir” value [8] was 2 ng/mL. For the same compound, the “t1/2last, plasma GS-441524” value [8] was 26.2 h, the “t1/2last, plasma Remdesivir” value [8] was 41.3 h and the “tlast, plasma GS-441524” value [8] was 168 h. The “tlast, plasma Remdesivir” value [8] was 168 h, the “F AUC(0-inf), plasma GS-441524” value [8] was 0.9 x-fold and the “F AUC(0-inf), plasma Remdesivir” value [8] was 12.1 x-fold. For the same compound, the “F AUC(0-last), plasma GS-441524” value [8] was 0.9 x-fold, the “F AUC(0-last), plasma Remdesivir” value [8] was 12.4 x-fold and the “Clast, plasma GS-441524” value [9] was 1 ng/mL. The “Clast, plasma Remdesivir” value [9] was 2 ng/mL, the “t1/2last, plasma GS-441524” value [9] was 25.3 h and the “t1/2last, plasma Remdesivir” value [9] was 36.4 h. For the same compound, the “tlast, plasma GS-441524” value [9] was 168 h, the “tlast, plasma Remdesivir” value [9] was 168 h and the “F AUC(0-inf), plasma GS-441524” value [9] was 0.8 x-fold. For the same compound, the “F AUC(0-inf), plasma Remdesivir” value [9] was 13.5 x-fold, the “F AUC(0-last), plasma GS-441524” value [9] was 1 x-fold and the “F AUC(0-last), plasma Remdesivir” value [9] was 14 x-fold. The “Plasma Remdesivir t1/2 and AUC compared to RDV delivered IV” value (delivered IV or SC) was “substantially extended plasma Remdesivir t1/2 and increased AUC”.
With `CCC(CC)COC(=O)[C@H](C)N[P@](=O)(OC[C@H]1O[C@@](C#N)(c2ccc3c(N)ncnn23)[C@H](O)[C@@H]1O)Oc1ccccc1` [RDV, 2-Ethylbutyl (2S)-2-{[(S)-{[(2R,3S,4R,5R)-5-(4-aminopyrrolo[2,1-f][1,2,4]triazin-7-yl)-5-cyano-3,4-dihydroxytetrahydrofuran-2-yl]methoxy}(phenoxy)phosphoryl]amino}propanoate] the AUC(0-inf) [10] was 332 ng·h/mL, the AUC(0-t) [10] was 312 ng·h/mL and the Cmax [10] was 364 ng/mL. For the same compound, the Tmax [10] was 18 min, the “Clast, plasma Remdesivir” value (both, in vivo, iv, 6.17 mg/kg) was 2 ng/mL and the “Time with plasma levels of Remdesivir greater than 10 ng/ml” value (both, in vivo, iv, 6.17 mg/kg) was “about 1 hour”. The “Time with plasma levels of Remdesivir greater than 100 ng/ml” value (both, in vivo, iv, 6.17 mg/kg) was “about 30 minutes”, the “t1/2last, plasma Remdesivir” value (both, in vivo, iv, 6.17 mg/kg) was 7.3 h and the “tlast, plasma Remdesivir” value (both, in vivo, iv, 6.17 mg/kg) was 36 h. It also gave an AUC(0-inf) [11] of 293 ng·h/mL, an AUC(0-t) [11] of 265 ng·h/mL and a Cmax [11] of 267 ng/mL. It also gave a Tmax [11] of 15 min, a Vd [11] of 3920 L/kg and a concentration at 48 h [11] of 1.8 ng/mL. The “t1/2last, plasma Remdesivir” value [11] was 10.7 h, the “tlast, plasma Remdesivir” value [11] was 48 h and the Clearance from blood (in vivo, iv) was “rapidly cleared from blood”. The AUC(0-inf) (male, in vivo, iv, 6.17 mg/kg) was 370 ng·h/mL, the AUC(0-t) (male, in vivo, iv, 6.17 mg/kg) was 360 ng·h/mL and the Cmax (male, in vivo, iv, 6.17 mg/kg) was 462 ng/mL. It also gave a Tmax (male, in vivo, iv, 6.17 mg/kg) of 15 min, a Vd (male, in vivo, iv, 6.17 mg/kg) of 1130 L/kg and a concentration at 24 h (male, in vivo, iv, 6.17 mg/kg) of 1.8 ng/mL. The “t1/2last, plasma Remdesivir” value (male, in vivo, iv, 6.17 mg/kg) was 3.9 h and the “tlast, plasma Remdesivir” value (male, in vivo, iv, 6.17 mg/kg) was 24 h.
